Molecular target: T1, MUC1 (full-length wild-type DF3/MUC1 glycoprotein) (human, UniProt P15941 24-1255)
T1 construct: whole, on cells; One entry for endogenous and transfected wild-type MUC1; Co-immunoprecipitated from NP-40 lysates with mAb DF3; also called wild-type MUC1
Test: co-IP from ZR-75-1 lysate: anti-MUC1 IP, anti-PKCµ blot (FIG. 13B)

B1: PKCµ (protein kinase Cµ), endogenous in ZR-75-1 cells (enzyme, human, UniProt Q15139 1-912, looked up)
chain: MSAPPVLRPPSPLLPVAAAAAAAAAALVPGSGPGPAPFLAPVAAPVGGISFHLQIGLSREPVLLLQDSSGDYSLAHVREMACSIVDQKFPECGFYGMYDKILLFRHDPTSENILQLVKAASDIQEGDLIEVVLSASATFEDFQIRPHALFVHSYRAPAFCDHCGEMLWGLVRQGLKCEGCGLNYHKRCAFKIPNNCSGVRRRRLSNVSLTGVSTIRTSSAELSTSAPDEPLLQKSPSESFIGREKRSNSQSYIGRPIHLDKILMSKVKVPHTFVIHSYTRPTVCQYCKKLLKGLFRQGLQCKDCRFNCHKRCAPKVPNNCLGEVTINGDLLSPGAESDVVMEEGSDDNDSERNSGLMDDMEEAMVQDAEMAMAECQNDSGEMQDPDPDHEDANRTISPSTSNNIPLMRVVQSVKHTKRKSSTVMKEGWMVHYTSKDTLRKRHYWRLDSKCITLFQNDTGSRYYKEIPLSEILSLEPVKTSALIPNGANPHCFEITTANVVYYVGENVVNPSSPSPNNSVLTSGVGADVARMWEIAIQHALMPVIPKGSSVGTGTNLHRDISVSISVSNCQIQENVDISTVYQIFPDEVLGSGQFGIVYGGKHRKTGRDVAIKIIDKLRFPTKQESQLRNEVAILQNLHHPGVVNLECMFETPERVFVVMEKLHGDMLEMILSSEKGRLPEHITKFLITQILVALRHLHFKNIVHCDLKPENVLLASADPFPQVKLCDFGFARIIGEKSFRRSVVGTPAYLAPEVLRNKGYNRSLDMWSVGVIIYVSLSGTFPFNEDEDIHDQIQNAAFMYPPNPWKEISHEAIDLINNLLQVKMRKRYSVDKTLSHPWLQDYQTWLDLRELECKIGERYITHESDDLRWEKYAGEQGLQYPTHLINPSASHSDTPETEETEMKALGERVSIL
notes: whole, on cells
Q: Does B1 bind?
A: no binding

From US20040166543A1 (Dana-Farber, published 2004)
